Kd, koff and kon data for 21 molecules are collected here from paper PMC10663500, “High-throughput analysis system of interaction kinetics for data-driven antibody design” (Scientific Reports, 2023).

Where a chain is given by its changes, count along the chain named. Some results are limits rather than exact numbers.

B1: toripalimab Fab H.E54Y (Fab, V domains shown)
VH: QGQLVQSGAEVKKPGASVKVSCKASGYTFTDYEMHWVRQAPIHGLEWIGVIESYTGGTAYNQKFKGRVTITADKSTSTAYMELSSLRSEDTAVYYCAREGITTVATTYYWYFDVWGQGTTVTVSS
VL: DVVMTQSPLSLPVTLGQPASISCRSSQSIVHSNGNTYLEWYLQKPGQSPQLLIYKVSNRFSGVPDRFSGSGSGTDFTLKISRVEAEDVGVYYCFQGSHVPLTFGQGTKLEIK
notes: heavy chain of Sm3 with this change; numbers count from the chain's first residue; as the light chain of Sm3; source: Brevibacillus, culture supernatant (ammonium sulfate precipitate); not shown: 6xHis, C-terminal, kept; 6xHN, C-terminal, kept
B2: toripalimab Fab H.T55A (Fab, V domains shown)
VH: B1 VH with Y54E, T55A
VL: B1 VL
notes: as for B1
B3: toripalimab Fab H.G57Y (Fab, V domains shown)
VH: B1 VH with Y54E, G57Y
VL: B1 VL
notes: as for B1
B4: toripalimab Fab H.F64A (Fab, V domains shown)
VH: B1 VH with Y54E, F64A
VL: B1 VL
notes: as for B1
B5: toripalimab Fab H.D31Y (Fab, V domains shown)
VH: B1 VH with D31Y, Y54E
VL: B1 VL
notes: as for B1
B6: toripalimab Fab H.Q62Y (Fab, V domains shown)
VH: B1 VH with Y54E, Q62Y
VL: B1 VL
notes: as for B1
B7: toripalimab Fab H.G56A (Fab, V domains shown)
VH: B1 VH with Y54E, G56A
VL: B1 VL
notes: as for B1
B8: toripalimab Fab H.N61A (Fab, V domains shown)
VH: B1 VH with Y54E, N61A
VL: B1 VL
notes: as for B1
B9: toripalimab Fab H.G57A (Fab, V domains shown)
VH: B1 VH with Y54E, G57A
VL: B1 VL
notes: as for B1
B10: toripalimab Fab H.Y60A (Fab, V domains shown)
VH: B1 VH with Y54E, Y60A
VL: B1 VL
notes: as for B1
B11: toripalimab Fab H.Q62A (Fab, V domains shown)
VH: B1 VH with Y54E, Q62A
VL: B1 VL
notes: as for B1
B12: toripalimab Fab H.T58A (Fab, V domains shown)
VH: B1 VH with Y54E, T58A
VL: B1 VL
notes: as for B1
B13: toripalimab Fab H.K63Y (Fab, V domains shown)
VH: B1 VH with Y54E, K63Y
VL: B1 VL
notes: as for B1
B14: toripalimab Fab H.K63A (Fab, V domains shown)
VH: B1 VH with Y54E, K63A
VL: B1 VL
notes: as for B1
B15: toripalimab Fab H.T55Y (Fab, V domains shown)
VH: B1 VH with Y54E, T55Y
VL: B1 VL
notes: as for B1
B16: toripalimab Fab H.N61Y (Fab, V domains shown)
VH: B1 VH with Y54E, N61Y
VL: B1 VL
notes: as for B1
B17: toripalimab Fab H.G56Y (Fab, V domains shown)
VH: B1 VH with Y54E, G56Y
VL: B1 VL
notes: as for B1
B18: toripalimab Fab H.Y32A (Fab, V domains shown)
VH: B1 VH with Y32A, Y54E
VL: B1 VL
notes: as for B1
B19: toripalimab Fab H.T58Y (Fab, V domains shown)
VH: B1 VH with Y54E, T58Y
VL: B1 VL
notes: as for B1
B20: toripalimab Fab H.F64Y (Fab, V domains shown)
VH: B1 VH with Y54E, F64Y
VL: B1 VL
notes: as for B1
B21: toripalimab Fab H.A59Y (Fab, V domains shown)
VH: B1 VH with Y54E, A59Y
VL: B1 VL
notes: as for B1

In one assay the target is T1, human programmed cell death protein 1 (hPD-1) C93S (aa 24-167) (Homo sapiens, UniProt Q15116, C93S).
T1 construct: made as a fusion with a TEV site and human Fc; the Fc was cut off with TEV protease; source: Expi293F, purified (Protein A, TEV cleavage of Fc, SEC; monomer fractions); not shown: Fc (human), C-terminal, cleaved
T1 sequence (Q15116 24-167 C93S): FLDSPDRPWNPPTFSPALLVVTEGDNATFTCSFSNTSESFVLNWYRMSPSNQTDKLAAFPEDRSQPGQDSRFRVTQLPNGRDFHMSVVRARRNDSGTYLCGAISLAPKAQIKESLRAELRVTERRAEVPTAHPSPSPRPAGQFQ
Kind of assay: SPR; Carterra LSA; Fab from the ammonium sulfate precipitate of the culture supernatant immobilised on a NiHC200M chip; hPD-1 (1-1024 nM) or mPD-1-Fc (4-1024 nM) as analyte, fourfold dilution series, no regeneration; HBS-EP pH 7.4, 25 °C; medians over the spots of a construct, KD = koff/kon. The note with it: one partner purified. A digest of the protocol: (§1)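 Fabs, ammonium sulfate-precipitated from Brevibacillus supernatants and redissolved in HBS-EP, were captured in duplicate on a NiHC200M chip on a Carterra LSA at 25 °C. Fourfold series of human PD-1 (1–1024 nM) or mouse PD-1-Fc (4–1024 nM) were run without regeneration, with association for 10 min and dissociation for 5 min. Rates were fitted with the kdka model, choosing the better of slow- or fast-dissociation settings, and unconfirmed binders were given kon 10^3 […] and koff 10^−2 s^−1. The dissociation constant KD is koff/kon based on per-construct medians.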
For B1, the Kd is < 0.326 nM, the koff is < 1e-05 s⁻¹ and the kon worked out at 30700 M⁻¹ s⁻¹.

B2 registered a dissociation constant (Kd) of 5.76 nM, a koff of 4.01e-05 s⁻¹ and a kon of 6960 M⁻¹ s⁻¹.

In the case of B3, binding was characterised by a dissociation constant (Kd) of 3.35 nM, the koff came out at 0.000138 s⁻¹ and the kon is 41100 M⁻¹ s⁻¹.

As for B4, the Kd was < 1.4 nM, the off-rate constant (koff) was < 1e-05 s⁻¹ and the kon was found to be 7170 M⁻¹ s⁻¹.

B5: the Kd was < 0.349 nM, the koff is < 1e-05 s⁻¹ and the kon came out at 28600 M⁻¹ s⁻¹.

Consider B6, for which the Kd was < 1.29 nM, the koff was < 1e-05 s⁻¹ and the kon was 7750 M⁻¹ s⁻¹.

As to B7, the Kd is < 1.46 nM, the koff was < 1e-05 s⁻¹ and the kon is 6870 M⁻¹ s⁻¹.

Consider B8, for which the Kd is < 0.355 nM, the koff was < 1e-05 s⁻¹ and the kon turned out to be 28100 M⁻¹ s⁻¹.

B9 yielded a Kd of 0.598 nM, a koff of 1.47e-05 s⁻¹ and a kon of 24500 M⁻¹ s⁻¹.

Consider B10, for which the equilibrium dissociation constant (Kd) is < 0.309 nM, the koff was < 1e-05 s⁻¹ and the kon is 32300 M⁻¹ s⁻¹.

As for B11, the Kd was < 1.29 nM, the koff was < 1e-05 s⁻¹ and the kon was 7730 M⁻¹ s⁻¹.

As for B12, the Kd is < 0.662 nM, the koff is < 1e-05 s⁻¹ and the kon came to 15100 M⁻¹ s⁻¹.

As to B13, the Kd is < 0.226 nM, the off-rate constant (koff) was < 1e-05 s⁻¹ and the kon was 44300 M⁻¹ s⁻¹.

On to B14, for which the Kd was < 0.248 nM, the dissociation rate constant (koff) is < 1e-05 s⁻¹ and the association rate constant (kon) was 40300 M⁻¹ s⁻¹.

In the case of B15, the Kd is < 0.354 nM, the koff was < 1e-05 s⁻¹ and the kon turned out to be 28300 M⁻¹ s⁻¹.

For the molecule B16, the Kd is < 0.156 nM, the koff is < 1e-05 s⁻¹ and the kon was 64200 M⁻¹ s⁻¹.

B17: the Kd was < 1.7 nM, the koff is < 1e-05 s⁻¹ and the kon was determined as 5890 M⁻¹ s⁻¹.

On to B18, for which the affinity, expressed as Kd, was 4.68 nM; the koff was 7.41e-05 s⁻¹; the association rate constant (kon) was found to be 15800 M⁻¹ s⁻¹.

Take B19: binding was characterised by a dissociation constant (Kd) of 1.26 nM, the koff came to 1.54e-05 s⁻¹ and the kon was 12300 M⁻¹ s⁻¹.

Molecule B20 came in with a Kd of 1.17 nM, a koff of 3.98e-05 s⁻¹ and a kon of 34200 M⁻¹ s⁻¹.

Consider B21, for which the Kd was found to be 2.18 nM, the koff is 4.81e-05 s⁻¹ and the kon came to 22100 M⁻¹ s⁻¹.

A further assay addresses T2, mouse programmed cell death protein 1 Fc fusion protein (mPD-1-Fc), mPD-1 C60S (aa 25-167) (Mus musculus, UniProt Q02242, stabilised).
T2 construct: not cleaved; source: Expi293F, purified (Protein A, SEC; dimeric fraction); not shown: Fc (human), C-terminal, kept
The description is as above. The settings on record: one partner purified. A digest of the protocol:
as §1
Molecule B1 gave a Kd of 80.3 nM, a koff of 0.00402 s⁻¹ and a kon of 50100 M⁻¹ s⁻¹.

The molecule B2 came in with a Kd of 411 nM, a koff of 0.0151 s⁻¹ and a kon of 36800 M⁻¹ s⁻¹.

On to B3, for which binding was put at a Kd of 90.3 nM, the koff was 0.00664 s⁻¹ and the kon worked out at 73500 M⁻¹ s⁻¹.

In the case of B4, the dissociation constant Kd was 59.7 nM, the koff came to 0.00193 s⁻¹ and the kon worked out at 32400 M⁻¹ s⁻¹.

As to B5, the Kd was 291 nM, the dissociation rate constant (koff) amounted to 0.0133 s⁻¹ and the kon was 45600 M⁻¹ s⁻¹.

Molecule B6 showed a Kd of 186 nM, a koff of 0.00625 s⁻¹ and a kon of 33600 M⁻¹ s⁻¹.

As for B7, the affinity, expressed as Kd, was 154 nM; the koff amounted to 0.00466 s⁻¹; the kon was determined as 30200 M⁻¹ s⁻¹.

The molecule B8 yielded a Kd of 32 nM, a koff of 0.00141 s⁻¹ and a kon of 44100 M⁻¹ s⁻¹.

On to B9, for which the Kd was 125 nM, the koff was 0.00625 s⁻¹ and the kon stood at 50100 M⁻¹ s⁻¹.

B10: binding was characterised by a dissociation constant (Kd) of 88.2 nM, the off-rate constant (koff) was 0.00422 s⁻¹ and the kon was found to be 47900 M⁻¹ s⁻¹.

B11 displayed a Kd of 153 nM, a koff of 0.00564 s⁻¹ and a kon of 37000 M⁻¹ s⁻¹.

As to B12, binding was put at a Kd of 169 nM, the koff was determined as 0.0066 s⁻¹ and the kon was 39000 M⁻¹ s⁻¹.

B13: binding was characterised by a dissociation constant (Kd) of 75.7 nM, the koff came out at 0.00458 s⁻¹ and the kon came out at 60400 M⁻¹ s⁻¹.

B14 showed a Kd of 71.3 nM, a koff of 0.00524 s⁻¹ and a kon of 73600 M⁻¹ s⁻¹.

With B15, binding was put at a Kd of 35.8 nM, the dissociation rate constant (koff) is 0.00179 s⁻¹ and the kon is 49900 M⁻¹ s⁻¹.

In the case of B16, the Kd worked out at 147 nM, the dissociation rate constant (koff) stood at 0.00562 s⁻¹ and the kon came to 38100 M⁻¹ s⁻¹.

Molecule B17 showed a Kd of 502 nM, a koff of 0.0174 s⁻¹ and a kon of 34700 M⁻¹ s⁻¹.

The molecule B18 yielded a Kd of 1310 nM, a koff of 0.0613 s⁻¹ and an association rate constant (kon) of 46900 M⁻¹ s⁻¹.

Molecule B19 came in with a Kd of 215 nM, a koff of 0.0107 s⁻¹ and an association rate constant (kon) of 49600 M⁻¹ s⁻¹.

B20 yielded a Kd of 36.3 nM, a koff of 0.00224 s⁻¹ and an on-rate (kon) of 61600 M⁻¹ s⁻¹.

Molecule B21 came in with a Kd of 345 nM, a koff of 0.0135 s⁻¹ and an association rate constant (kon) of 39200 M⁻¹ s⁻¹.

The term Kd denotes the concentration at which binding is half-saturated. A lower Kd goes with higher affinity. One may read the koff as the first-order rate constant of dissociation. Broadly, the kon is the rate constant with which the complex forms.
